This series deals with T1, His-MBP-SPO11;TOP6BL-Flag (Mus musculus;Mus musculus, UniProt Q9WTK8;J3QMY9 1-396;1-579, |).
T1 sequence 1: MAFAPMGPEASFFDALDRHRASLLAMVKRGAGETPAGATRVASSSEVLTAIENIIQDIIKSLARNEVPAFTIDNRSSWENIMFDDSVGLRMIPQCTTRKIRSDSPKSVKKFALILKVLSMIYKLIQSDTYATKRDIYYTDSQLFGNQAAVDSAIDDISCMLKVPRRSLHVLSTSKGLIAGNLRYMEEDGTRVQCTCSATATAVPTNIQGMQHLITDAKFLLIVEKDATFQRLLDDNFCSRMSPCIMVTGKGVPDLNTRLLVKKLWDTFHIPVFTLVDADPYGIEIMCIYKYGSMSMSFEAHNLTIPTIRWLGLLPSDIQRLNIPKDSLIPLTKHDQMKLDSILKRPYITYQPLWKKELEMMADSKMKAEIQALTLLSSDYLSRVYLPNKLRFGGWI
T1 sequence 2: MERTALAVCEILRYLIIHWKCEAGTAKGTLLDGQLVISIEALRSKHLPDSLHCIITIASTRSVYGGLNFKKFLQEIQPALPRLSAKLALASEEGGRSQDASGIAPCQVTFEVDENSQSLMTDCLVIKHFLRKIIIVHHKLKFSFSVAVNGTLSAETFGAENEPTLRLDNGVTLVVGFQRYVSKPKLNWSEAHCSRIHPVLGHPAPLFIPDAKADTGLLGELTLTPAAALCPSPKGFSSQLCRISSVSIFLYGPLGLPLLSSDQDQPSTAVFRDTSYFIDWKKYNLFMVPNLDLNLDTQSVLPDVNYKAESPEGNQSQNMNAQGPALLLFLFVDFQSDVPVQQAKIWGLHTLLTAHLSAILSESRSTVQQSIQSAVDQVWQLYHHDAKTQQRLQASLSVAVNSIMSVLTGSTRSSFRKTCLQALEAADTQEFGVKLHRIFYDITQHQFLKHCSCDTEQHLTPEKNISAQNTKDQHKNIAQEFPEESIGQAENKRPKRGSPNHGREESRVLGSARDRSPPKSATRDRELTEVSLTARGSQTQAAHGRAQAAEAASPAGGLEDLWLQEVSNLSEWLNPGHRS
The series can be described thus: EMSA.

B1: 46bp dsDNA, double 5' overhang (dsDNA)
DNA 1: TAGACGTCCTCGCATCAAGATGCTGCTGCCATCTTATATTTTCTATAC
DNA 2: TAGTATAGAAAATATAAGATGGCAGCAGCATCTTGATGCGAGGACGTC
As for B1, the Kd (in general, a measure of binding affinity in units of concentration) is 20.8 ± 0.39 nM.

Source of the values: paper PMC11922769.
